Experiment [1] deals with recombinant laminin LAMA3_(2928–3150) protein (human) (UniProt Q16787). As to the kind of experiment: SPR; LAMA3 2928–3150 immobilised by amine coupling on a C1 chip (~1000 RU); GF flown at 20 μL/min in 0.01 M HEPES pH 7.4, 0.15 M NaCl, 0.005% surfactant P20; Langmuir binding kinetics. For orientation: In SPR one partner is held on a chip, and binding of the other changes the refractive index at the surface.

The target of experiment [2] is laminin peptide LAMA5_(3417–3436) (human) (UniProt O15230).
Chain of laminin peptide LAMA5_(3417–3436) (human) (O15230 3417-3436): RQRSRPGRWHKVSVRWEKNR
Experiment [3] addresses laminin peptide LAMA3_(3043–3067) (human) (UniProt Q16787).
Experiment [4] has as its target recombinant human laminin-521 (human) (UniProt O15230). Put plainly: SPR; laminin-521 immobilised by amine coupling on a C1 chip (~2000 RU); GF flown at 20 μL/min in 0.01 M HEPES pH 7.4, 0.15 M NaCl, 0.005% surfactant P20; Langmuir binding kinetics.

Chain of recombinant laminin LAMA3_(2928–3150) protein (human) (Q16787 2928-3150): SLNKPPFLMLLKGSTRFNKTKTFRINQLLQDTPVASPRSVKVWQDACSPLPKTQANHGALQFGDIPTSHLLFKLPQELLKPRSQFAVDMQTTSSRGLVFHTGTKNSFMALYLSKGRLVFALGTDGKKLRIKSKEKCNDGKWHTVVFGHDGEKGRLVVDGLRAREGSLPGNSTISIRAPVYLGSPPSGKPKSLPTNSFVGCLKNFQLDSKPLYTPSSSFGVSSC
Chain of laminin peptide LAMA3_(3043–3067) (human) (Q16787 3043-3067): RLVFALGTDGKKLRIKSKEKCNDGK

What is called Kd is the constant that tells how readily two partners part at equilibrium. On to “vascular endothelial cell growth factor VEGF-A165 (ligand)”, for which the results for the Kd in experiment [1] and in experiment [4] were 1.2 nM and 5.8 nM, respectively. Moreover, in experiment [2], the cumulative release of VEGF-A165 after 5 days from a fibrin matrix with covalently incorporated α2PI1–8-LAMA5 (3417–3436) (without peptide >85% released after 24 h) came to 31%. Also, the cumulative release of VEGF-A165 after 5 days from a fibrin matrix with covalently incorporated α2PI1–8-LAMA3 (3043–3067) (without peptide >85% released after 24 h) in experiment [3] came out at 25%.

(Values after paper PMC5986797, “Laminin heparin-binding peptides bind to several growth factors and enhance diabetic wound healing” (Nature Communications, 2018).)
